Laboratory results from article PMC10715038 (Microbiology Spectrum, 2023).

Molecular target: T1, SARS-CoV-2 WHU01 Spike RBD, monomeric (SARS-CoV-2, UniProt P0DTC2)
T1 construct: not shown: Fc (human IgG1), C-terminal, cleaved
Test: SPR
Conditions: both partners purified

B1: Dog ACE2-huFc (soluble dog ACE2 ectodomain, human IgG1 Fc fusion) (Fc fusion)
chain: QSTEDLVKTFLEKFNYEAEELSYQSSLASWNYNINITDENVQKMNNAGAKWSAFYEEQSKLAKTYPLEEIQDSTVKRQLRALQHSGSSVLSADKNQRLNTILNSMSTIYSTGKACNPSNPQECLLLEPGLDDIMENSKDYNERLWAWEGWRSEVGKQLRPLYEEYVALKNEMARANNYEDYGDYWRGDYEEEWENGYNYSRNQLIDDVEHTFTQIMPLYQHLHAYVRTKLMDTYPSYISPTGCLPAHLLGDMWGRFWTNLYPLTVPFGQKPNIDVTNAMVNQSWDARKIFKEAEKFFVSVGLPNMTQEFWENSMLTEPSDSRKVVCHPTAWDLGKGDFRIKMCTKVTMDDFLTAHHEMGHIQYDMAYAAQPFLLRNGANEGFHEAVGEIMSLSAATPNHLKNIGLLPPSFFEDSETEINFLLKQALTIVGTLPFTYMLEKWRWMVFKGEIPKDQWMKTWWEMKRNIVGVVEPVPHDETYCDPASLFHVANDYSFIRYYTRTIYQFQFQEALCQIAKHEGPLHKCDISNSSEAGQKLLEMLKLGKSKPWTYALEIVVGAKNMDVRPLLNYFEPLFTWLKEQNRNSFVGWNTDWSPYADQSIKVRISLKSALGEKAYEWNNNEMYLFRSSIAYAMRQYFSEVKNQTIPFVEDNVWVSDLKPRISFNFFVTSPGNVSDIIPRTEVEEAIRMYRSRINDVFRLDDNSLEFLGIQPTLGPPYEPPVTI
notes: source: 293F cells, transfected, purified from supernatant (Protein A Sepharose)
B1 showed a Kd of 275 nM, a koff of 0.0176 s⁻¹ and a kon of 60000 M⁻¹ s⁻¹.
